Holding throughout (experiment): fluorescence anisotropy
The target of data set [1] is T1, rGyr_fl Y851F (full-length reverse gyrase) (Thermotoga maritima, UniProt O51934 1-1104, Y851F).
T1 sequence: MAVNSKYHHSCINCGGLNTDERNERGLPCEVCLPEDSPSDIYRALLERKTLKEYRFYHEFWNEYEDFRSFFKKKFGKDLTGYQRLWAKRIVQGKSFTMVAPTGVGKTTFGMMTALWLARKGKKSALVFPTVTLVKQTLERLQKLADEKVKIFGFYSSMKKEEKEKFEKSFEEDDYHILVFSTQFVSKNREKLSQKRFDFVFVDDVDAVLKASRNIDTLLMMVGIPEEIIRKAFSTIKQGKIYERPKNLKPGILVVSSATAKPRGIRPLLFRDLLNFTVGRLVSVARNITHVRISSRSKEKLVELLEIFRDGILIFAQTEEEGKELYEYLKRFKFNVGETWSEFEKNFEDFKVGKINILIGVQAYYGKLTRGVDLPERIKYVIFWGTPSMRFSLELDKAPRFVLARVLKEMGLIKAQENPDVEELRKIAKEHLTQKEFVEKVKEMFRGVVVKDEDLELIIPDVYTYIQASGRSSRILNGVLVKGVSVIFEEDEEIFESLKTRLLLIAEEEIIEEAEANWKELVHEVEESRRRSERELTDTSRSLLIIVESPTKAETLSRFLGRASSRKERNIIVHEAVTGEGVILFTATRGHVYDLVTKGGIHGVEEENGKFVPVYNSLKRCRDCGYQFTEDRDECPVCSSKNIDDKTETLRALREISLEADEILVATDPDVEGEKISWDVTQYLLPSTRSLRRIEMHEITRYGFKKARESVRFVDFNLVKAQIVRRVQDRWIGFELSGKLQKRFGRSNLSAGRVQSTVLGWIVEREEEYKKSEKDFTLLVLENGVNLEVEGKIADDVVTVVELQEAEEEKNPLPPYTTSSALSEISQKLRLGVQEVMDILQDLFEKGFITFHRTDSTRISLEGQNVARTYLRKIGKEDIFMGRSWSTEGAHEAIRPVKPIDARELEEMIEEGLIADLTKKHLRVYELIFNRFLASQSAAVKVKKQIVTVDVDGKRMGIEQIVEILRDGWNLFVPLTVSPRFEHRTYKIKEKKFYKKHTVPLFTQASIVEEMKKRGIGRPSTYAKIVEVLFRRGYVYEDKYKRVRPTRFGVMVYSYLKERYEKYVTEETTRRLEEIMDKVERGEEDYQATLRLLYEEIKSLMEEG

The target in data set [2] is T2, rGyr_hel (reverse gyrase helicase-like domain) (Thermotoga maritima, UniProt O51934 59-541).
T2 sequence: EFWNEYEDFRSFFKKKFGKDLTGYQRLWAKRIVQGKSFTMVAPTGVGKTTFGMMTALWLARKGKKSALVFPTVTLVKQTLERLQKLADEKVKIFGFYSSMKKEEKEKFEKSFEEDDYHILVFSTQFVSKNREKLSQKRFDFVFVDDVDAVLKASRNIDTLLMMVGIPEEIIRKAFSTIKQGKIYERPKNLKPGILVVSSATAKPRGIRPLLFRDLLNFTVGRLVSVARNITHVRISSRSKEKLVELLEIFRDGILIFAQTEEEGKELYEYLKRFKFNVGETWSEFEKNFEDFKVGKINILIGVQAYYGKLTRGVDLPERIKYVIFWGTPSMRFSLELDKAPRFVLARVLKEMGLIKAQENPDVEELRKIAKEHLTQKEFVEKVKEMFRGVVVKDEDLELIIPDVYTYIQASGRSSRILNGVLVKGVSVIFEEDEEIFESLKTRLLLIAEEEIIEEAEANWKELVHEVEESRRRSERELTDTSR

A further data set deals with T3, rGyr_hel K106Q (Thermotoga maritima, UniProt O51934 59-541, K106Q).
T3 sequence: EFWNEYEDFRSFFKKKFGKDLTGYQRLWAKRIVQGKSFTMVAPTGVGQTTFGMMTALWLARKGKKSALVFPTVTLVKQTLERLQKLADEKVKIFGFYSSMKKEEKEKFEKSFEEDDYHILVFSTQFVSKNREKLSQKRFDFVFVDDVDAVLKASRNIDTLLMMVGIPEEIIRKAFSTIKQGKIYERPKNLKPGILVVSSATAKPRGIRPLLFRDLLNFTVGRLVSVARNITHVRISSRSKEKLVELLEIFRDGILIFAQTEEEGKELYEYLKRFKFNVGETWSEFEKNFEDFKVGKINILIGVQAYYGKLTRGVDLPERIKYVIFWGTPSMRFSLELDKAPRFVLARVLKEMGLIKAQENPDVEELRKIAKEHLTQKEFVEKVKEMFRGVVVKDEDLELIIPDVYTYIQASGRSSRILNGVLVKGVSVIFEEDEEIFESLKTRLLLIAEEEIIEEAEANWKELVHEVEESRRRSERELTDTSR

Data set [3] addresses T2, rGyr_hel (reverse gyrase helicase-like …). This is another data set of the same source.
Data set [4] has the same target. The source holds these as a separate data set.
The target of data set [5] is T1, rGyr_fl Y851F (full-length reverse …). This is another data set of the same source.

Read-outs that look alike come from different tables or passages of the source.

B1: 60-base ssDNA (ssDNA)
DNA: AAGCCAAGCTTCTAGAGTCAGCCCGTGATATTCATTACTTCTTATCCTAGGATCCCCGTT
Consider B1, for which the Kd in data set [1] came out at 38 ± 2 nM; in data set [2], 600 ± 70 nM; with rGyr_hel K106Q it was 180 ± 30 nM; in data set [3] it was 2900 ± 100 nM; in data set [4], 330 ± 10 nM; in data set [5] it was 36 ± 1 nM.

These data come from paper PMC2566858 (Nucleic Acids Research, 2008).
